Target: recombinant full-length kif2a, MBP fusion protein (Xenopus) (UniProt Q91637)
Assay: pull-down; 1 µM MBP-kif2a added to stage 3 embryo cytoplasmic extract for 15 min, retrieved on amylose resin (15 min), washed with PBS with 0.01% Tween; importin α immunoblot quantified, normalized to kif2a intensity

Sequence of UniProt Q91637 (Q91637 whole entry, the tested form may be a part): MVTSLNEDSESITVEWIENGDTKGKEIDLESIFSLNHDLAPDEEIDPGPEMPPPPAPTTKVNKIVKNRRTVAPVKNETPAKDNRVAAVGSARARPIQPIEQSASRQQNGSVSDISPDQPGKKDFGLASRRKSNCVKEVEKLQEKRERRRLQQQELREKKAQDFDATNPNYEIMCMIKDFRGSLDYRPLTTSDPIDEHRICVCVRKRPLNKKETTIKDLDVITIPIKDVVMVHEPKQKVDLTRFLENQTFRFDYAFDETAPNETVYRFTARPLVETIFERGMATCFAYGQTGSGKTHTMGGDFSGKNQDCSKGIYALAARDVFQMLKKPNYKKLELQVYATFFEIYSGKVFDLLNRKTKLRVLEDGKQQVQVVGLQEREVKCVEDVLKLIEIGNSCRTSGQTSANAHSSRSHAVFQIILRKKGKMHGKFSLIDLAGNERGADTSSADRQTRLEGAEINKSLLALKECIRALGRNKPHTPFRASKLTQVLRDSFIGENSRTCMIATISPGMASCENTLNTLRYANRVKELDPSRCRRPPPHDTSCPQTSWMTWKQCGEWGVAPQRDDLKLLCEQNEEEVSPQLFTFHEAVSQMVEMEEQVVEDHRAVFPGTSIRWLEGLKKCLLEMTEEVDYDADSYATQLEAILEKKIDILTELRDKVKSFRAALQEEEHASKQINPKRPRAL

fold of importin α retrieved from stage 3 extracts against stage 8 extracts: 10 fold
Substance: importin α (endogenous, Xenopus laevis egg and embryo extracts) (natural protein)

From PMC3576809
